{"source": "the domain aggregation screens of Martell et al. (2025)", "experiment": "soluble fraction after stress (log2 fold change); higher = more stays soluble; pooled small domains, quantitative proteomics", "settings": "stress: 75 degC", "data": [{"sequence": "HMSADKAEAAEASLKSFNLRLQAAAMEAGKTFAPVTADQYAEYKAAWGTYIRKGIEGLSESEKKTINVG", "values": [{"measurement": "soluble fraction (log2)", "value": -0.243}]}, {"sequence": "HMSAETREELVGREGVSLTDLRPSGFALFGQEKIDVVSESEFIEEGTSVRIVSVEGSRHIVRAKR", "values": [{"measurement": "soluble fraction (log2)", "value": -0.0724}]}, {"sequence": "HMSAISSARKEKIIEYLTDHGSARSSEIAEYVDLRPSRVRDYLGELVREDIVVAEGANRNRTYRLK", "values": [{"measurement": "soluble fraction (log2)", "value": -0.0533}]}, {"sequence": "HMSAPGYRAVYPGMLESERQTAYELLSSSGFDVKINTSSGELEVTTDRYHEARMVMASQNIPK", "values": [{"measurement": "soluble fraction (log2)", "value": -0.137}]}, {"sequence": "HMSAPVFRITPAGVVVNGLKRSDILTLTRIDGAMNTLPHNAGEVLVSTEGLAKGVYVITAGGKSLKFLV", "values": [{"measurement": "soluble fraction (log2)", "value": -1.85}]}, {"sequence": "HMSAQPMEYSRFYSDVTQGRVAEVEIEGREINGRLSTGERFKTFSPETDNKALIGHLLDNGVVIEGKPP", "values": [{"measurement": "soluble fraction (log2)", "value": 0.255}]}, {"sequence": "HMSASEKLFEARKNLNIVNVLGKNPVDRYDIVKILKHGDHYHIYDSKGNEGITYTNPKSLYPEAEFGEYQG", "values": [{"measurement": "soluble fraction (log2)", "value": -0.0642}]}, {"sequence": "HMSASTGTVSYKSGATTVWNSPSWHQVKRYVTFGDTVQLLGKTVDQNGATWYKVGDNQWIPELYLNVAG", "values": [{"measurement": "soluble fraction (log2)", "value": -0.725}]}, {"sequence": "HMSATEPVHFDPNKSPEDMTVEELQAGILAKMANNGPVSDQMKKTVNENIWHDSLVNWLKSF", "values": [{"measurement": "soluble fraction (log2)", "value": -0.164}]}, {"sequence": "HMSATPQRMSIINELDSARKNLSAYDLRDSLKDKGHSFNISTIYRVLSFWIDVGVVHKMDSSNTYL", "values": [{"measurement": "soluble fraction (log2)", "value": -0.111}]}, {"sequence": "HMSATVLVHVLGEVRKPGVVSLPEGSRVQDAITAAGGLTSRAKPGDLNLAARVSDGAQLVIGRSGSQVRTT", "values": [{"measurement": "soluble fraction (log2)", "value": -0.306}]}, {"sequence": "HMSAVVAPLPGLIQNILVKVGDTVHAGQHVLTMEAMKMENEIQTNRDGIIKDIKVRIGDSVNEGDTLIIL", "values": [{"measurement": "soluble fraction (log2)", "value": 0.0725}]}, {"sequence": "HMSDAGAIEPTIKEILASNPKAVEEYLAGNIKNINALIGQSMKALHGKADPQTVRNLLAKLLDEM", "values": [{"measurement": "soluble fraction (log2)", "value": -0.252}]}, {"sequence": "HMSDAIQLEQKIGLEAIEWYLALSEQTDDKLLYQQWQSWLAADPQHQLAWSRIEQVNHGLNTL", "values": [{"measurement": "soluble fraction (log2)", "value": -1.03}]}, {"sequence": "HMSDAVQLGLRLRAARERRGLSQQAVADALGLPRTAVTNMESGNRAVSTLELTKLAALYGQSTAFFLSP", "values": [{"measurement": "soluble fraction (log2)", "value": -1.19}]}, {"sequence": "HMSDDVELLGRLSDREVSVLQYLSQGYSNKQISEQMFISNKTVSTYKARLLLKLNAGSLVDLIEFAKRNTL", "values": [{"measurement": "soluble fraction (log2)", "value": -1.35}]}, {"sequence": "HMSDEINYVIQINGKNRAEAEFGANLDKESIENLALEHERIKELLNGLTVRKIIVVPKKLVNIVA", "values": [{"measurement": "soluble fraction (log2)", "value": -0.556}]}, {"sequence": "HMSDESALLELVKQIIADNPKAVEEIRAGKEKAMGFLIGQAMKASRGSANPQIISRLVREQLG", "values": [{"measurement": "soluble fraction (log2)", "value": 0.57}]}, {"sequence": "HMSDFDPTLILDLIKGSGEALTKREIARALGIKGGDKRIELKSHLKSMEAEGVIVKQAGGAYSVP", "values": [{"measurement": "soluble fraction (log2)", "value": -0.132}]}, {"sequence": "HMSDFSNLNLLELNSSELDLLLRRASSQGLTQMDLLKMARSQGLSEADLIKVKGKIDTSESIKR", "values": [{"measurement": "soluble fraction (log2)", "value": 0.076}]}, {"sequence": "HMSDFSSNLRRLRKRAGLSQDALAEKLSVARQTVSSWERGNSYPDLDMLVRISDALATDPNELLYPN", "values": [{"measurement": "soluble fraction (log2)", "value": -0.167}]}, {"sequence": "HMSDGDFLQKIAEEILAQFPDKVKEYQKGKKGLIGFFMGELMKRSKGKADPKVATRILEEILSEKNGSS", "values": [{"measurement": "soluble fraction (log2)", "value": -0.0745}]}, {"sequence": "HMSDGTVYGSDGVIKVNLPQSGMLRIYATDGTTLVNRWQAAGIDTISMPRGLYIVRFDNQVWKVVV", "values": [{"measurement": "soluble fraction (log2)", "value": -1.65}]}, {"sequence": "HMSDHSSLAGKEGVAVTPLRPAGTAEIDGKRMDVVTMGDYIKAGDHIKVVKVEGNRIIVAKN", "values": [{"measurement": "soluble fraction (log2)", "value": 0.0173}]}, {"sequence": "HMSDHYEVLGVDRNATDDQIKKAYRRLARELHPDVNDAPESQEKFKLVTHAYEVLSDPDERRKYDMG", "values": [{"measurement": "soluble fraction (log2)", "value": -0.0229}]}, {"sequence": "HMSDIYSLFERELGRTLSSYEYEIIGKWIEKGVSEDTIKRALKEAILNGVTNFKYIDKIIYDWSKN", "values": [{"measurement": "soluble fraction (log2)", "value": -0.622}]}, {"sequence": "HMSDLFKYSPYKTLTEEQYKITYQIIERLKTDLSNGIPRISIIDGGAGTGKSILGIFLLKLLVDAQN", "values": [{"measurement": "soluble fraction (log2)", "value": 0.353}]}, {"sequence": "HMSDNLSASERKALSHMEGMESVRSSEVADLLGMSQRGAQKLLNRLVDKGLASSFGANRNRRYSVE", "values": [{"measurement": "soluble fraction (log2)", "value": 0.144}]}, {"sequence": "HMSDNLTIVRAVYSGLSQRQAAATYHVSRNTVSLLLRHARNRGWLTLEDLAQLDNAAFSKSL", "values": [{"measurement": "soluble fraction (log2)", "value": -4.32}]}, {"sequence": "HMSDPFSPTTTLKNRAKSVLSVDSFEDFKLFIKKMWQEKKEGVYQNPNVETWKDWDNISVKDAKILISLI", "values": [{"measurement": "soluble fraction (log2)", "value": -1.45}]}, {"sequence": "HMSDPHEELMSRIARDLSIPLTRVVAEMNTIISKEFGGHIRPEGAVVILAKRSGVEFSDLLPALRENILK", "values": [{"measurement": "soluble fraction (log2)", "value": -1.92}]}, {"sequence": "HMSDQIQQIAERIAGLRDIAGYSVEELARELGISAEEYKRYESGEVDIPIGFLYKLANKYNVELTAILT", "values": [{"measurement": "soluble fraction (log2)", "value": -0.289}]}, {"sequence": "HMSDRFLDQEGVALSTLRPSGTVVLDSGEHLDVVTRGEFIEQGERVKVIKAESTWYVVEQIN", "values": [{"measurement": "soluble fraction (log2)", "value": 0.112}]}, {"sequence": "HMSDRLRLGRRIRAARLEQNLSQAALAERLGISASYLNLLEHDRRSLTTVLLLKLAQVLGLELRDLAAG", "values": [{"measurement": "soluble fraction (log2)", "value": -2.49}]}, {"sequence": "HMSDRLRPGDMVVVVGKKKRYPVFSAFDIDFVEAGDVGKVLTVKREEVVVGFPKKGEGTFTPSELNIAH", "values": [{"measurement": "soluble fraction (log2)", "value": -1.18}]}, {"sequence": "HMSDTGQELHDALNMARRTLTILEEQAAGYTALTIPARLVLELEEKRKDVVRLETQIRSAATGTPG", "values": [{"measurement": "soluble fraction (log2)", "value": -0.649}]}, {"sequence": "HMSDTLPRLLWNFQMAKRLDEMNGAEKRRYQLVLIHPQASEKERDYASSFAHQARMLGIEVAIRDS", "values": [{"measurement": "soluble fraction (log2)", "value": -0.395}]}, {"sequence": "HMSDVVFRINANGLNVSGLANGERVSVYDTTGKLVTTAVSTQDNGTLNLPLKQSGGIYIARTQSGVSFKFT", "values": [{"measurement": "soluble fraction (log2)", "value": -0.786}]}, {"sequence": "HMSDYKSYLQELVQTDKKSLSYNVVKETGPAHDKTFEVEVEVDGIIYAHGVGKSKKEAEQNAAKNAIMISA", "values": [{"measurement": "soluble fraction (log2)", "value": 0.3}]}, {"sequence": "HMSDYLGSLSHEEKMIFNHFDEDSSTIENMAKKTELKPELISQIFLNLELRGFLRQTEGGLYEKI", "values": [{"measurement": "soluble fraction (log2)", "value": -0.43}]}, {"sequence": "HMSDYYEVLGVTRQADAEEIKRAYRRKARQLHPDVAGPGHEEEFKEVTVAYEVLSDPEKRQAYDLGGQDAL", "values": [{"measurement": "soluble fraction (log2)", "value": 0.0155}]}, {"sequence": "HMSEDAVKFRAAVEVENGLAQRNLNKNQAALILGVDRSYFTYIISGKKTPSPDMAKRIGLLLGFDWRVFYA", "values": [{"measurement": "soluble fraction (log2)", "value": -1.89}]}, {"sequence": "HMSEEIKVPNFVGSTFEKAQALAQETGLEIARGEDVYSPDQEEGKITSQNPTADSVVSPGKLITVYVSKG", "values": [{"measurement": "soluble fraction (log2)", "value": 0.385}]}, {"sequence": "HMSEIKDRLREARRNKGLSQAGLSKLLGVSQASIAAIESGRNKRPTNLVSIAKALDVSPYWLETGK", "values": [{"measurement": "soluble fraction (log2)", "value": -0.229}]}, {"sequence": "HMSEITQTLSMIGKEVTLEIPDEKDKTKTTEVKGIVTEASFKDGTGKVKVNGEYYSIAYITSIRDT", "values": [{"measurement": "soluble fraction (log2)", "value": "≥ 1.04"}]}, {"sequence": "HMSEIVEEQNTKLKQAVSKLSKRQQEVLYLKFEEGLDYEQISKIMDLKYQSVRNLVSTAIIKIKEH", "values": [{"measurement": "soluble fraction (log2)", "value": -2.72}]}, {"sequence": "HMSEKELTDLIERIKERRLKLEMSYQDLSDATGISKSTLQRYETGYIKKVPINQIEILAKALHTTPSYLMG", "values": [{"measurement": "soluble fraction (log2)", "value": -0.411}]}, {"sequence": "HMSEKIDINNSNELELKQLPLTNEQIKSLIEFRRLHGEIQNIYELKNIDFFNIEKVHELKAHIEIKKII", "values": [{"measurement": "soluble fraction (log2)", "value": -1.03}]}, {"sequence": "HMSELADDPVYTALEKAADKAGLQLTVRILNDLADAVLKRGKKKLTAAQAGKVIARAESELAKSRID", "values": [{"measurement": "soluble fraction (log2)", "value": 0.00292}]}, {"sequence": "HMSELDASYLGQRVRYVSGFTETDPSEGLVEFRGSNWRARAEHPPLDHSGHWVIVKVESNTLWVEEKSN", "values": [{"measurement": "soluble fraction (log2)", "value": -1.57}]}]}
